These are literature values, as cited in article PMC5533512.

For orientation: Kd means the concentration at which binding is half-saturated.

For the data set, the target named is CD40 (Homo sapiens) (UniProt P25942).
Sequence of UniProt P25942 (P25942 21-193): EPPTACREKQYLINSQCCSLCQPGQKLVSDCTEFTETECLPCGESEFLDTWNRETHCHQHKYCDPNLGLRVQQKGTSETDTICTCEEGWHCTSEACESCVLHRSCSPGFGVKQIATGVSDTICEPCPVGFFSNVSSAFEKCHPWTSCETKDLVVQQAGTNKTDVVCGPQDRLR

For the substance dacetuzumab, the Kd was 1 nM.
